Data published in PMC3469657, “De novo GTP Biosynthesis Is Critical for Virulence of the Fungal Pathogen Cryptococcus neoformans” (PLoS Pathogens, 2012).

Assays:
[1] = tested on: NC(=O)c1ccc[n+]([C@@H]2O[C@H](COP(=O)([O-])OP(=O)(O)OC[C@H]3O[C@@H](n4cnc5c(N)ncnc54)[C@H](O)[C@@H]3O)[C@@H](O)[C@H]2O)c1; test: purified protein; settings: IMP NAD+ site; substrate inhibition attributed to an E-XMP*•NAD+ complex; varied: cofactor
[2] = target: T1, CgImd1 (IMP dehydrogenase, CgIMPDH, VGIV) (Cryptococcus bacillisporus, UniProt E3P6S3); test: NADH production at […] nm, tight-binding inhibition fits; type: biochemical
T1 construct: gene IMD1; recombinant CgImd1 expressed in E. coli

[3] = target: T2, CnImd1 (IMP dehydrogenase, CnIMPDH, VNI) (Cryptococcus neoformans, UniProt J9VET5); test: crystal structure with IMP and MPA; steady-state kinetics (tight-binding uncompetitive vs NAD+); type: biochemical
T2 construct: gene CNAG_00441; recombinant, 544 residues; 395 residues modelled per monomer
T2 sequence (J9VET5 entry or part of it): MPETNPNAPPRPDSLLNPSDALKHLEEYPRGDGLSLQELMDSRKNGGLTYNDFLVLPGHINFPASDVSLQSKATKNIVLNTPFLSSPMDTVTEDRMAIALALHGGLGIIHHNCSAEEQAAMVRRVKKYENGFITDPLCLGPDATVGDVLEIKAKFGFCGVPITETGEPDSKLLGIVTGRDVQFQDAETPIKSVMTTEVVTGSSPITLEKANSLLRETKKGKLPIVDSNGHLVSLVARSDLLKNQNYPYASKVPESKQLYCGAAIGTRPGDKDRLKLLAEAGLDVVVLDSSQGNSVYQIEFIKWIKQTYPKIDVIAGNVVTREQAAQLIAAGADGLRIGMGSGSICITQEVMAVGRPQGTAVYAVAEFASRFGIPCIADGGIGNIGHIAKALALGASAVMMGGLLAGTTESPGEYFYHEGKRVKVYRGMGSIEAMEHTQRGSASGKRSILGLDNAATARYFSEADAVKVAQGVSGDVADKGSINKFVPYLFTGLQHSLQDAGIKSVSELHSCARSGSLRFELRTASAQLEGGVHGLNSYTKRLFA

T1 sequence (E3P6S3 entry or part of it): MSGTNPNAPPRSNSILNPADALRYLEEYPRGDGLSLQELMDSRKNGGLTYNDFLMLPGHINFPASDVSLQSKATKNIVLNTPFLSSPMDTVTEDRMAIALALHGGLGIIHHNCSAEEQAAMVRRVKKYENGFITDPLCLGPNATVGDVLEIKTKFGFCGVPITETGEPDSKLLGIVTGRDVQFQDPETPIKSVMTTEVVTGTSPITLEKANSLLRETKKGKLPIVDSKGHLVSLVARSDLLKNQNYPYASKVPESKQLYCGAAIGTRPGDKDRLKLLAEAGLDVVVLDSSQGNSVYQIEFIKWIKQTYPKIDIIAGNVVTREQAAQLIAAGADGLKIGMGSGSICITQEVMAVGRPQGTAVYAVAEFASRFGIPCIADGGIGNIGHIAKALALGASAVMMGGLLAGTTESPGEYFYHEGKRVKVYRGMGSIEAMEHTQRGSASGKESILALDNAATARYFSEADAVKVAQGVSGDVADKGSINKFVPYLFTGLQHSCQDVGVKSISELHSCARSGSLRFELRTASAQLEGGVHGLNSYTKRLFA

Compound	Km [1] [µM]	Ki [2] [nM]	Ki [3] [nM]
CgImd1 (IMP dehydrogenase, CgIMPDH, VGIV) (Cryptococcus bacillisporus)	532 ± 65		
CnImd1 (IMP dehydrogenase, CnIMPDH, VNI) (Cryptococcus neoformans H99)	634 ± 97		
COc1c(C)c2c(c(O)c1C/C=C(\C)CCC(=O)O)C(=O)OC2 [MPA, mycophenolic acid]		96 ± 5	240 ± 18
